Assay results taken from patent publication CN113563467A (SHANGHAI PUMING BIOLOGICAL TECH CO LTD, dated 2021).

Columns and labels:
[1] = target: T1, 人C5蛋白 in 人血清补体 (Normal Human Serum Complement, Quidel, A112) (human, UniProt P01031 19-1676); assay: cell-based or functional assay
[2] = target: T1, 人C5蛋白 in 人血清补体 (Normal Human Serum …); assay: cell-based or functional assay; remark: listed apart in the source

T1 sequence (P01031 19-1676 limits assumed): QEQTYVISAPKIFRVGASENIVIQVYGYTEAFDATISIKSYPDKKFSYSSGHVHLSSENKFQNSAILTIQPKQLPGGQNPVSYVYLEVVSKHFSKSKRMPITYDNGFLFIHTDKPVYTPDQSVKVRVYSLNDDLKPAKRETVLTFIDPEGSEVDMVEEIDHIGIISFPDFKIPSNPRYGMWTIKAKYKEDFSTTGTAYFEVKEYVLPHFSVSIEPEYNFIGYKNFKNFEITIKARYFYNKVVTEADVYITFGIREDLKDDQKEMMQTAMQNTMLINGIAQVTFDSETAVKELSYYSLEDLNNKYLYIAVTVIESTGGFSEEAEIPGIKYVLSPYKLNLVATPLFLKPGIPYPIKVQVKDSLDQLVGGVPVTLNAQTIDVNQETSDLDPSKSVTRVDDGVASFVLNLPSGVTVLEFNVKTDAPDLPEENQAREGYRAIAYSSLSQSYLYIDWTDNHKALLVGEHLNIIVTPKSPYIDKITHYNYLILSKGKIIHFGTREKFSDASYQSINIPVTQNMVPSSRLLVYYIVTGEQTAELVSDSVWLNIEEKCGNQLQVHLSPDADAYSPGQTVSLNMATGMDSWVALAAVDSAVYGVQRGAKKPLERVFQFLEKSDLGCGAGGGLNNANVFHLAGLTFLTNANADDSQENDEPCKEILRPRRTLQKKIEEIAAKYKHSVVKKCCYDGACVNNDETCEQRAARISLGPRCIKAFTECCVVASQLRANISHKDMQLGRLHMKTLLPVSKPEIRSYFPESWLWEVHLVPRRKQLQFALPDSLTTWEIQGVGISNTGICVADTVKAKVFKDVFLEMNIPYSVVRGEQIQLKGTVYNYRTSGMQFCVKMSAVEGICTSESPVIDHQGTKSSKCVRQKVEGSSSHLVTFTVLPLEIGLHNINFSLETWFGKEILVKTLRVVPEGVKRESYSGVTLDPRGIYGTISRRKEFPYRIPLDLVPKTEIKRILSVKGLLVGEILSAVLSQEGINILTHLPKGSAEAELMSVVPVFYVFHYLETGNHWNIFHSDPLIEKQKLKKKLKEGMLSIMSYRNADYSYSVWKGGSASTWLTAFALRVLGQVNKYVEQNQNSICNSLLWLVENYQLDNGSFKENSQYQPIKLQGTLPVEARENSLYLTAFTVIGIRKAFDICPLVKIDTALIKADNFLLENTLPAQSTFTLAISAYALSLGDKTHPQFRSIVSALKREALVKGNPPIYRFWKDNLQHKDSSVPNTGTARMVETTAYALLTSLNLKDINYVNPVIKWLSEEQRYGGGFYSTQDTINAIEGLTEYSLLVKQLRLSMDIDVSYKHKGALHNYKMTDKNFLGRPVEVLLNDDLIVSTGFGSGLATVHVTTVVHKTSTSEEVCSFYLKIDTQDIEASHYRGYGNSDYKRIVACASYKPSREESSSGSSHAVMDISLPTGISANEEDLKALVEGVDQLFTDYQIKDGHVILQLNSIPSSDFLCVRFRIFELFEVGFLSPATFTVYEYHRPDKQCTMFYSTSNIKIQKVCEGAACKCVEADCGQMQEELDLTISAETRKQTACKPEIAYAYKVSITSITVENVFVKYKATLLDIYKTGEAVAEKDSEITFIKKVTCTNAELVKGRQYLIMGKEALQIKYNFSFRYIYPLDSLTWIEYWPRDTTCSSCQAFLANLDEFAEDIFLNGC

B1: Ref1 (对照抗体依库珠单抗可变区，hIgG1/hIgG-Kappa) (antibody, V domains shown)
VH: QVQLVQSGAEVKKPGASVKVSCKASGYIFSNYWIQWVRQAPGQGLEWMGEILPGSGSTEYTENFKDRVTMTRDTSTSTVYMELSSLRSEDTAVYYCARYFFGSSPNWYFDVWGQGTLVTVSS
VL: DIQMTQSPSSLSASVGDRVTITCGASENIYGALNWYQQKPGKAPKLLIYGATNLADGVPSRFSGSGSGTDFTLTISSLQPEDFATYYCQNVLNTPLTFGQGTKVEIKR
[1]
  IC50(ug/ml), 补体依赖性溶血实验: 8.73 µg/mL
[2]
  EC50(ug/ml), 补体依赖性细胞毒性(CDC)阻断分析: 2.63 µg/mL
